B1: CaaD (trans-3-chloroacrylic acid dehalogenase) (Pseudomonas pavonaceae) (protein)
chain 1: PMISCDMRYGRTDEQKRALSAGLLRVISEATGEPRENIFFVIREGSGINFVEHGEHLPDYVPGNANDKALIAKLK
chain 2: PFIECHIATGLSVARKQQLIRDVIDVTNKSIGSDPKIINVLLVEHAEANMSISGRIHGEAASTERTPAVS
B2: Cg10062 (Corynebacterium glutamicum ATCC 13032) (protein)
chain: PTYTCWSQRIRISREAKQRIAEAITDAHHELAHAPKYLVQVIFNEVEPDSYFIAAQSASENHIWVQATIRSGRTEKQKEELLLRLTQEIALILGIPNEEVWVYITEIPGSNMTEYGRLLMEPGEEEKWFNSLPEGLRERLTELEGSSE

How the values were obtained:
purified protein [1] = substrate: O=C(O)/C=C/Cl; test: purified protein; settings: 20 mM Na2HPO4 pH 9.0, 22 °C
[2] = substrate: CC#CC(=O)C(=O)O; test: spectrophotometric hydration assay; format: biochemical, Corynebacterium glutamicum; settings: 20 mM Na2HPO4 pH 9.0, 23 °C
purified protein [3] = substrate: O=C(O)/C=C\Cl; test: purified protein; settings: 20 mM Na2HPO4 pH 9.0, 22 °C

Protein	Km (purified protein [1]) [mM]	kcat (purified protein [1]) [s⁻¹]	kcat/Km (purified protein [1]) [M⁻¹ s⁻¹]	Km [2] [mM]	kcat [2] [s⁻¹]	kcat/Km [2] [M⁻¹ s⁻¹]	Km (purified protein [3]) [mM]	kcat (purified protein [3]) [s⁻¹]	kcat/Km (purified protein [3]) [M⁻¹ s⁻¹]
B1	0.028 ± 0.003	1.9 ± 0.6	68000						
B2	78 ± 36	0.06 ± 0.01	0.8	6.2 ± 0.75	0.33 ± 0.03	50	19 ± 1	3.5 ± 1.1	184

Source: PMC2659011
